Laboratory results reported in patent publication US20240390422A1 (QUELL THERAPEUTICS, published 2024).

T1: Biotinylated Human TREM2 Protein,His,Avitag (TR2-H82E7, ACRObiosystems) (human, UniProt Q9NZC2 19-174, biotinylated (Avitag))
T1 construct: Bought protein; also called huTREM2,Biotin,His,Avitag; Biotinylated human TREM2 protein with a streptavidin tag; not shown: His tag and Avitag
T1 sequence (looked up): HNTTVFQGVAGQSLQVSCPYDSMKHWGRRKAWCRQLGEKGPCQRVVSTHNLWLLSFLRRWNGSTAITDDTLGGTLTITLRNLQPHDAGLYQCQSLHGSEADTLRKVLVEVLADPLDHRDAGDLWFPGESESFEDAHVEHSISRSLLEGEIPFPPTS

B1: construct 8 (anti-TREM2 CAR comprising a TREM2 scFv) (other)
chain: QVQLVQSGAEVKKPGASVKVSCKASGYTFTGYHMSWVRQAPGQGLEWMGVINPVSGNTVYAQKFQGRVTMTRDTSISTAYMELSRLRSEDTAVYYCARIPSYTYAFDYWGQGTLVTVSSGGGGSGGGGSGGGGSDIQMTQSPSSLSASVGDRVTITCRASQDISNYLAWYQQKPGKAPKLLIYRASSLQSGVPSRFSGSGSGTDFTLTISSLQPEDFATYYCQQHGHSPTTFGQGTKVEIKLRVFSSVVPVLQKVNSTTTKPVLRTPSPVHPTGTSQPQRPEDCRPRGSVKGTGLDFACDIYIWAPLAGICVALLLSLIITLICYHRQLWTNSRRNRLLQSDYMNMTPRRPGLTRKPYQPYAPARDFAAYRPRAKFSRSAETAANLQDPNQLYNELNLGRREEYDVLEKKRARDPEMGGKQQRRRNPQEGVYNALQKDKMAEAYSEIGTKGERRRGKGHDGLYQGLSTATKDTYDALHMQTLAPR
notes: the construct also encodes GFP
B2: construct 7 (anti-TREM2 CAR comprising a TREM2 scFv) (other)
chain: QVQLQQSGPGLVKPSQTLSLTCAISGDSVSSSSAAWNWIRQSPSRGLEWLGHIGYRSKWYNEYAVSVKSRITINPDTSKNQFSLQLNSVTPEDTAVYYCARGMYGSVPYKEGYYFDIWGQGTLVTVSSGGGGSGGGGSGGGGSDIQMTQSPSSLSASVGDRVTITCRASQGISSDLNWYQQKPGKAPKLLIYAASNLQSGVPSRFSGSGSGTDFTLTISSLQPEDFATYYCQQYTDESMTFGQGTKVEIKLRVFSSVVPVLQKVNSTTTKPVLRTPSPVHPTGTSQPQRPEDCRPRGSVKGTGLDFACDIYIWAPLAGICVALLLSLIITLICYHRQLWTNSRRNRLLQSDYMNMTPRRPGLTRKPYQPYAPARDFAAYRPRAKFSRSAETAANLQDPNQLYNELNLGRREEYDVLEKKRARDPEMGGKQQRRRNPQEGVYNALQKDKMAEAYSEIGTKGERRRGKGHDGLYQGLSTATKDTYDALHMQTLAPR
notes: Chimeric antigen receptor with an anti-TREM2 scFv, expressed on the surface of Jurkat NFAT cells or murine Tregs after retroviral transduction; the construct also encodes GFP
B3: construct 3 (anti-TREM2 CAR comprising a TREM2 scFv) (other)
chain: EVQLVQSGAEVKKPGESLKISCKGSGYTFTSYWIGWVRQMPGKGLEWMGIIYPGDSDTRYSPSFQGQVTISVDKSSSTAYLQWSSLKASDTAIYYCTRQAIAVTGLGGFDPWGQGTLVTVSSGGGGSGGGGSGGGGSEIVLTQSPGTLSLSPGERATLSCRASQSVSSSYLAWYQQKPGQAPRLLIYGASSRATGIPDRFSGSGSGTDFTLTISRLEPEDFALYYCQQYDTSPFTFGPGTKVDIKLRVFSSVVPVLQKVNSTTTKPVLRTPSPVHPTGTSQPQRPEDCRPRGSVKGTGLDFACDIYIWAPLAGICVALLLSLIITLICYHRQLWTNSRRNRLLQSDYMNMTPRRPGLTRKPYQPYAPARDFAAYRPRAKFSRSAETAANLQDPNQLYNELNLGRREEYDVLEKKRARDPEMGGKQQRRRNPQEGVYNALQKDKMAEAYSEIGTKGERRRGKGHDGLYQGLSTATKDTYDALHMQTLAPR
notes: as for B2
B4: construct 10 (anti-TREM2 CAR comprising a TREM2 scFv) (other)
chain: EVQLLESGGGLVQPGGSLRLSCAASGFTFSNYYMAWVRQAPGKGLEWVSSLTNSGGSTYYADSVKGRFTISRDNSKNTLYLQMNSLRAEDTAVYYCTREWAGSGYFDYWGQGTLVTVSSGGGGSGGGGSGGGGSDIQMTQSPSSLSASVGDRVTMTCKASQNVGNNLAWYQQKPGKAPKLLLYYTSNRFTGVPSRFSGSGSGTDFTLTISSVQPEDFATYYCQRIYNSPWTFGQGTKLELKLRVFSSVVPVLQKVNSTTTKPVLRTPSPVHPTGTSQPQRPEDCRPRGSVKGTGLDFACDIYIWAPLAGICVALLLSLIITLICYHRQLWTNSRRNRLLQSDYMNMTPRRPGLTRKPYQPYAPARDFAAYRPRAKFSRSAETAANLQDPNQLYNELNLGRREEYDVLEKKRARDPEMGGKQQRRRNPQEGVYNALQKDKMAEAYSEIGTKGERRRGKGHDGLYQGLSTATKDTYDALHMQTLAPR
notes: as for B2

biological target: T1, Biotinylated Human TREM2 …; assay: flow cytometry: CAR-transduced Jurkat NFAT cells stained with Biotinylated Human TREM2 Protein and Streptavidin APC; also sorted with the protein and streptavidin beads
Text: Constructs 3, 7, 8 and 10 are all constructs of the present invention, which comprise a CAR comprising a TREM2 scFv. Non-transduced cells (mock) and transduced cells were collected and stained for flow cytometry using Biotinylated Human TREM2 Protein (TR2-H82E7 ACRObiosystems) and Streptavidin APC as a secondary antibody. Cells were sorted using Streptavidin magnetic beads, columns (miltenyi) and Biotinylated Human TREM2 Protein (TR2-H82E7 ACRObiosystems).
On day 4 after transduction, Jurkat NFAT cells were stained for surface expression of the anti-TREM2 CARs using Biotinylated Human TREM2 Protein (TR2-H82E7 ACRObiosystems) and Streptavidin-APC as a secondary antibody. On day 7, CAR expressing cells were selected using Streptavidin magnetic beads (Streptavidin MicroBeads, 130-048-101, Miltenyi), columns (Miltenyi) and Biotinylated Human TREM2 Protein (TR2-H82E7 ACRObiosystems) and then used for subsequent activation assays.

| Binder | binding result |
| --- | --- |
| B1 | binds |
| B2 | binds |
| B3 | binds |
| B4 | binds |
